{"source": "patent US20100331262A1", "about": "(KAGOSHIMA UNIVERSITY, published 2010)", "binders": {"B1": {"name": "pepB7-C15 (peptide)", "peptide": "CYGTKPWMC", "notes": "also called pepB6-C2, C5, C6, C7, C8, C9, C10, and C15; pepD1-C5, C7, and C20"}}, "key": {"B6 scFv [1]": {"target": "T1, B6 scFv", "T1 construct": "also called clone B6 of WO 2005/105998", "T1 sequence (VH, as listed by the source, chain 1 of 2)": "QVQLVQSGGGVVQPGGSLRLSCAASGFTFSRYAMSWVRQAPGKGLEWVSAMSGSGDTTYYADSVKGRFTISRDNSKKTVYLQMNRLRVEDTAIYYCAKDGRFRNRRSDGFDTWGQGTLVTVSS", "T1 sequence (VL, as listed by the source, chain 2 of 2)": "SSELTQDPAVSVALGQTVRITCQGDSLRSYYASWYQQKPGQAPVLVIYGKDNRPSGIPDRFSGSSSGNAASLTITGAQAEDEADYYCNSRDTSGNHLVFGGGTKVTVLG", "assay": "phage panning and phage ELISA on coated scFv"}, "D1 scFv": {"target": "T2, D1 scFv", "T2 construct": "also called clone D1 of WO 2005/105998", "T2 sequence (VH, as listed by the source, chain 1 of 2)": "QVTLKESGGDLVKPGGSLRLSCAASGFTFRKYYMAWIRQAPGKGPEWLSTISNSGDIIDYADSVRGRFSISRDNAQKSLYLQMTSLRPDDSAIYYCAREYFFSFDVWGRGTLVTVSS", "T2 sequence (VL, as listed by the source, chain 2 of 2)": "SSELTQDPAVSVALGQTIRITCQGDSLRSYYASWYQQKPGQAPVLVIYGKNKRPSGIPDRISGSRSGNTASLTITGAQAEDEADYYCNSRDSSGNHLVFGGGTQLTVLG", "assay": "phage panning on coated scFv, clones confirmed by phage ELISA"}, "B7 scFv": {"target": "T3, B7 scFv", "T3 construct": "also called clone B7 of WO 2005/105998", "T3 sequence (VH, as listed by the source, chain 1 of 2)": "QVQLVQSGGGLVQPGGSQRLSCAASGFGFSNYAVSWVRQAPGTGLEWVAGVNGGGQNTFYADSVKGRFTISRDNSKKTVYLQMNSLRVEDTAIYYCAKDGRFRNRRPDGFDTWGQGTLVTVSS", "T3 sequence (VL, as listed by the source, chain 2 of 2)": "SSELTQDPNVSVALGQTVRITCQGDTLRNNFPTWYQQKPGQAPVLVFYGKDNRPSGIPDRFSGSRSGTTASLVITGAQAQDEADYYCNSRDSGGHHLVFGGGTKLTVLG", "assay": "phage panning on coated scFv, clones confirmed by phage ELISA"}, "B6 scFv [2]": {"target": "T1, B6 scFv", "assay": "phage panning on coated scFv, clones confirmed by phage ELISA"}, "[3]": {"target": "T4, Aβ oligomers or Aβ fibers formed 1.5 hours after the dissolution of Aβ1-42 (UniProt P05067 672-713)", "T4 construct": "domain: Aβ1-42; Aggregated conformers of Aβ1-42 after 1.5 h at 40 µM in 20 mM phosphate buffer pH 7.0; The number of copies is not defined; also called Aβ conformers (Aβ oligomers and Aβ fibers)", "T4 sequence (P05067 672-713 limits assumed)": "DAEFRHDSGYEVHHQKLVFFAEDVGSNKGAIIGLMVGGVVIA", "assay": "precipitation with streptavidin-magnet beads, Western blot with anti-Aβ antibodies"}}, "data": [{"binder": "GMLDIFAPIRHV", "note": "[pepB6-L1]", "values": [{"measurement": "binding result", "setting": "B6 scFv [1]", "value": "binds"}]}, {"binder": "B1", "values": [{"measurement": "binding result", "setting": "D1 scFv", "value": "binds"}, {"measurement": "binding result", "setting": "B7 scFv", "value": "binds"}, {"measurement": "binding result", "setting": "B6 scFv [2]", "value": "binds"}]}, {"binder": "CYGTEPWMC (also called pepD1-C13; pepD1-C2, C13)", "note": "[pepD1-C2]", "values": [{"measurement": "binding result", "setting": "D1 scFv", "value": "binds"}]}, {"binder": "CFGHEPWMC", "note": "[pepD1-C18]", "values": [{"measurement": "binding result", "setting": "D1 scFv", "value": "binds"}]}, {"binder": "CFGHKPWMC", "note": "[pepD1-C11]", "values": [{"measurement": "binding result", "setting": "D1 scFv", "value": "binds"}]}, {"binder": "CQGHLPWMC", "note": "[pepD1-C3]", "values": [{"measurement": "binding result", "setting": "D1 scFv", "value": "binds"}]}, {"binder": "CFGRLPWMC", "note": "[pepD1-C8]", "values": [{"measurement": "binding result", "setting": "D1 scFv", "value": "binds"}]}, {"binder": "CFGSLPWMC", "note": "[pepD1-C10]", "values": [{"measurement": "binding result", "setting": "D1 scFv", "value": "binds"}]}, {"binder": "TSPILDVLTPPR", "note": "[pepB6-L10]", "values": [{"measurement": "binding result", "setting": "B6 scFv [1]", "value": "binds"}]}, {"binder": "GSPFLDLLAPAA (also called pepD1-L9; pepD1-L5, L9)", "note": "[pepD1-L5]", "values": [{"measurement": "binding result", "setting": "D1 scFv", "value": "binds"}]}, {"binder": "SSIIDILLPPIY", "note": "[pepD1-L6]", "values": [{"measurement": "binding result", "setting": "D1 scFv", "value": "binds"}]}, {"binder": "SILDILSPRLAE", "note": "[pepD1-L7]", "values": [{"measurement": "binding result", "setting": "D1 scFv", "value": "binds"}]}, {"binder": "GNTLLDTLVPLI", "note": "[pepD1-L13]", "values": [{"measurement": "binding result", "setting": "D1 scFv", "value": "binds"}]}, {"binder": "NPLDFYAPSILP", "note": "[pepD1-L20]", "values": [{"measurement": "binding result", "setting": "D1 scFv", "value": "binds"}]}, {"binder": "GSGGGSCGYWRSEWGLCG (also called unrelated peptide)", "note": "[unrelated control peptide (GSGGGSCGYWRSEWGLCG)]", "values": [{"measurement": "binding result", "setting": "[3]", "value": "no binding"}]}]}
